Measurements as given in US20260209387A1, “SINGLE-DOMAIN ANTIBODY FOR INHIBITION OF NEUTROPHIL ELASTASE ACTIVITY” (UNIVERSITE DE LIEGE, priority 2023, published 2026).

What was measured:
hNE [1] = target: T1, hNE (Homo sapiens, UniProt P08246); assay: Stability of NbE201 towards hNE (SDS-PAGE, 37° C.); type: in vitro ADME
T1 construct: purchased Elastin Products Company (EPC)
T1 sequence (P08246 30-247): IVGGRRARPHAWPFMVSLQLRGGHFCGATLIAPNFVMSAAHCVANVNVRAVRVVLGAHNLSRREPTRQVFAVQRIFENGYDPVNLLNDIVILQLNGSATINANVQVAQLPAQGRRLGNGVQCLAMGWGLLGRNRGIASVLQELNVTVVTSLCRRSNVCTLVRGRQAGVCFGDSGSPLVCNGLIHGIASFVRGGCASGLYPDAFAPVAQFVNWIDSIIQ
Experimental: NbE201 (26.4 μM) was incubated at 37° C. alone or in the presence of hNE ([NbE201]: [hNE]=4:1). Aliquots (10 μL) taken at different time intervals were mixed with 4 μL of sample loading buffer (Tris-HCl (pH 6.8), SDS denaturant (4%, % w/v), β-mercaptoethanol (5%, % v/v), bromophenol blue (0.01%, % w/v), glycerol (20%, % v/v), H2O)) and then stored at −20° C. until analysis by SDS-PAGE using 4-20% Mini-PROTEAN TGX Protein Gel, 10 wells, 50 μL (Bio-Rad, Germany). Then, the gel was stained by Coomassie blue, destained in water and imaged using a Gel Doc EZ Imager (Biorad). The relative amount of intact protein was quantified by densitometry analysis with a Gel Doc EZ Imager program using the intensity of the band at time zero as the relative standard. hNE alone was incubated on similar conditions and an aliquot was taken at different time points to measure its activity using N-Succinyl-Ala-Ala-Ala-paraNitroAnilide as substrate as describe above.

hNE [2] = target: T1, hNE; assay: Competitive binding by BLI with AAT, EI3 and Nb-H7S-Nter-P1
Experimental: The biotinylated NbE201 (10 μg/ml in KB buffer) was immobilized on streptavidin biosensors (SA, Sartorius) following the provider's indications. A biosensor quenching step with biocytin 1 μg/mL was performed. […] The association was measured for 280 s in kinetic buffer (KB buffer, Sartorius). The experiments were carried out at 30° C. in 384-wells black-bottom microplates in polypropylene (Greiner Bio-One, Belgium) and with agitation (1000 rpm).

human cathepsin G (hCG) = target: T2, human cathepsin G (hCG) (Homo sapiens, UniProt P08311); assay: hCG inhibition, substrate N-Succinyl-Ala-Ala-Pro-Phe p-nitroanilide; type: biochemical; conditions: chromogenic substrate
T2 construct: purchased Calbiochem
T2 sequence (P08311 21-244): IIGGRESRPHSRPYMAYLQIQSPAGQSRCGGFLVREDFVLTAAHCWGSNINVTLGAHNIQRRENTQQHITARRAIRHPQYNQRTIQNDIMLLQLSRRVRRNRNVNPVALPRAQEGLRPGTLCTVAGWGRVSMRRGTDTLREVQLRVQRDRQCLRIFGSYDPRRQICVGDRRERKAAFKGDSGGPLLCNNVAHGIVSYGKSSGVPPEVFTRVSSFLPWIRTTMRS
Source text: (§1) To determine whether NbE201 was specific for hNE, we first investigated its ability to inhibit several serine proteases: pancreatic elastase from pork (pPE, 39.2% sequence identity, from Sigma), mice neutrophil elastase (mNE, 74.9% sequence identity, from EPC) and with two other human serine proteases present in the lung: proteinase 3 (hPR3 from EPC, 54.7% sequence identity) and cathepsin G (hCG from Calbiochem, 36.7% sequence identity). The substrate used were Succinyl-Ala-Ala-Ala-paraNitroAnilide (1 mM in 0.1 M Tris pH 7.5 with NaCl 0.5 M and NaN3 0.01%, % w/v from Sigma-Aldrich) for pPE, MeOSuc-Ala-Ala-Pro-Val-AMC (100 μM in Tris 50 mM, NaCl 1 M, 0.05% (% w/v) Brij-35, pH 7.5) for mNE, N-Succinyl-Ala-Ala-Pro-Phe p-nitroanilide (0.45 mM in 100 mM HEPES pH 7.5, from Sigma Aldrich) for hCG and Boc-Ala-Ala-Nva-SBzl (0.22 mM in 100 mM MOPS pH 5.0 0.5 M NaCl, 100 μM DTNB, DMSO 10%, from EPC) for PR3. mNE (rmELA2 from R&D systems, United Kingdom) was first activated according to the supplier information. In brief, mNE was incubated with recombinant mouse active cathepsin C/DPPIy (rmCathepsin C from R&D systems) in MES 50 mM, NaCl 50 mM, pH 5.5 for 2 h at 37° C. The enzyme concentration in the assay was 6 nM, 14.7 nM, 25 nM, 5 nM for PPE, mNE, hCG and hPR3, respectively. Different molar ratios of NbE201: Enzyme were tested. […]

[3] = target: T3, porcine pancreatic elastase (pPE) (Sus scrofa, UniProt P00772); assay: pPE inhibition, substrate Succinyl-Ala-Ala-Ala-paraNitroAnilide; type: biochemical; conditions: chromogenic substrate
T3 construct: purchased Sigma
T3 sequence (P00772 27-266): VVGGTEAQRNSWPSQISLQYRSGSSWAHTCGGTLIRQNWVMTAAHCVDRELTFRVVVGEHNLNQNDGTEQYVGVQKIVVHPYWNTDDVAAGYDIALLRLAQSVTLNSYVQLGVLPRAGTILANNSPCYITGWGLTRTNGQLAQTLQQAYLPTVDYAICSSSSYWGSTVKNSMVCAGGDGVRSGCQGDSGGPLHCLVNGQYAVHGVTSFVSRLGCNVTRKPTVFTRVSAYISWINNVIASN
Source text: as §1

hNE [4] = target: T1, hNE; assay: hNE inhibition, hydrolysis of elastin (Elastin-CongoRed); type: biochemical
Experimental: 1.6.2. Inhibition of the hydrolysis of elastin, a natural substrate of hNE. […] The samples were incubated for 16 hours at 37° C. with orbital shaking (900 rpm). The samples were then centrifuged at 90′000 g for 30 minutes at 4° C. to separate the insoluble Elastin from the digested and soluble molecule fragments. The soluble fraction was transferred into a 384-wells clear plate and the absorbance of Congo-red was measured at 495 nm in a SpectraMax M2e Microplates Reader (Molecular Devices, California, USA). The absorbance of the samples at different inhibitor: hNE molar ratios was compared to that measured in the absence of inhibitor, to determine the residual hNE activity. A sample of Elastin-Congo red without elastase was used as blank.

binding of hNE in complex with AAT to immobilized NbE201 (hNE [2]; hNE 250 nM pre-incubated with AAT 1.5 μM): does not bind to NbE201 | binding of hNE pre-incubated with EI3 (MeOSuc-AAPV-CMK) to immobilized NbE201 (hNE [2]; hNE 250 nM, EI3 15 μM): unable to bind to NbE201 | binding of hNE pre-incubated with cAb-H7S-Nter-P1 to immobilized NbE201 (hNE [2]; hNE 250 nM, cAb-H7S-Nter-P1 1.5 μM): unable to bind to NbE201 | inhibition of human cathepsin G (human cathepsin G (hCG)): does not inhibit | inhibition of porcine pancreatic elastase [3]: does not inhibit | inhibition of hNE activity, elastin hydrolysis (hNE [4]; [inhibitor]:[hNE] ratio 15): 80%
B1: NbE201: anti-hNE ISVD (VHH/nanobody) from immunized lama, amino acid sequence SEQ ID NO: 4 (protein)
VHH: QVQLQESGGGLVQAGGSLRLSCVVPGRTISLYRMGWFRQAPGKEREFVAGINWSGDMTDYVDSVKGRFTISRDNAKNTVYLEMNSLKPEDTAIYYCTADPKLLPLADSSYGYWGQGTQVTVSS
time NbE201 is stable in presence of hNE (hNE [1]; 37° C., [NbE201]:[hNE] 4:1): 14 days | percentage of remaining complex (intact NbE201) over time (hNE [1]; in presence of hNE, [NbE201]:[hNE] 4:1, 37° C., 14 days): around 100% | hNE residual activity, elastin hydrolysis (hNE [4]; [inhibitor]:[hNE] = 50): almost zero
